Measurements as given in article PMC3432076.

Biological target: His-ΔPACC (Neurospora crassa) (UniProt Q7RVQ8)
Test: EMSA
Settings: EMSA: 25 mM HEPES-KOH pH 7.9, 20 mM KCl, 10% glycerol, 1 mM DTT, 0.2 mM EDTA, 0.5 mM PMSF, 12.5 mM benzamidine, 5 µg/mL antipain and pepstatin A, 2 µg …

Chain of His-ΔPACC (Neurospora crassa) (Q7RVQ8 1-213, stated change not applied): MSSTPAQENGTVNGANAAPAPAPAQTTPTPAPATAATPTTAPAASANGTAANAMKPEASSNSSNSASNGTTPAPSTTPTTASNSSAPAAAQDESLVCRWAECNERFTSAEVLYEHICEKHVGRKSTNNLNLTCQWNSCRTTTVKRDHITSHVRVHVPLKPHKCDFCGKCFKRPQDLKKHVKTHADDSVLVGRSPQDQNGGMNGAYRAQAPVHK

| Sequence | binding |
| --- | --- |
| GACCCAACAGCCCAACTTGTGCTTGTCTTGTTCTTTTCCGGCCTCGCTAGAGGTACTATTTCTTCGCTTCTTGTCTGACTTTTTTCAATAGCCGTCTTTGGGCCAGCTTGGCCGTGAGATCGGGGCCGCATGGGAGTATTCGTTGC (double strand) [pacC probe (146 bp gsn promoter)] | binds |
| GACCCAACAGCCCAACTTGTGCTTGTCTTGTTCTTTTCCGGCCTCGCTAGAGGTACTATTTCTTCGCTTCTTGTCTGACTTTTTTCAATAGCCGTCTTTGGGCCAGAAATTACGTGAGATCGGGGCCGCATGGGAGTATTCGTTGC (double strand) [mpacC probe (CTTGGC to AAATTA)] | binds more weakly |
